Test results published in US20250154277A1 (CONCEPT TO MEDICINE BIOTECH, published 2025).
Like-named read-outs stand apart in the source and are kept apart here.

T1: human 5T4 expressed on cells (human, UniProt Q13641 32-420)
T1 construct: whole, on cells; also called CHOK1-hu5T4; CHO-K1-expressing human 5T4
T1 sequence (looked up): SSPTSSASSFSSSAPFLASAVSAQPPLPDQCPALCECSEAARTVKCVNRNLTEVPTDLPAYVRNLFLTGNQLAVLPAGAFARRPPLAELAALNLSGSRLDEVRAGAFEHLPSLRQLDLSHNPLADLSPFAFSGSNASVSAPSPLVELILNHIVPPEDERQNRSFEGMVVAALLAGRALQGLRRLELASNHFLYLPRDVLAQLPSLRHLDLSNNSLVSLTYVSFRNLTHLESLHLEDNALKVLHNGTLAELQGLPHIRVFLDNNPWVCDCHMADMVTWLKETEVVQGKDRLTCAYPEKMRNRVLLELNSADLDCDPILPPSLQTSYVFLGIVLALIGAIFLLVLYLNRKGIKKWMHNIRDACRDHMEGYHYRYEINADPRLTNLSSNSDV

T2: human 5T4-His protein (human, UniProt Q13641 32-355)
T2 construct: also called recombinant 5T4 protein (human 5T4-his tag); human 5T4 protein; not shown: His tag
T2 sequence (looked up): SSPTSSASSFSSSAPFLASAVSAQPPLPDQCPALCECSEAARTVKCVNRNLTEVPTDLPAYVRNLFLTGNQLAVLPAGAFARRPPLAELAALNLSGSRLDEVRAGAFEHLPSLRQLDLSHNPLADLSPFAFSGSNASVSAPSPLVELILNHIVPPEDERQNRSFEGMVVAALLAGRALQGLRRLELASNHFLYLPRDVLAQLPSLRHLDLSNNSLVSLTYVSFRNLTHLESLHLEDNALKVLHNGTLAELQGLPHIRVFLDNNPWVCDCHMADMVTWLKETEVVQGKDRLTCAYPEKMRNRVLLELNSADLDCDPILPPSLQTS

T3: cynomolgus 5T4 protein (cynomolgus monkey, UniProt Q4R8Y9 35-355, limits assumed)
T3 construct: Coated protein in ELISA; the screening step names a cyno 5T4-His protein; also called cyno 5T4; recombinant cyno 5T4-His protein
T3 sequence (looked up): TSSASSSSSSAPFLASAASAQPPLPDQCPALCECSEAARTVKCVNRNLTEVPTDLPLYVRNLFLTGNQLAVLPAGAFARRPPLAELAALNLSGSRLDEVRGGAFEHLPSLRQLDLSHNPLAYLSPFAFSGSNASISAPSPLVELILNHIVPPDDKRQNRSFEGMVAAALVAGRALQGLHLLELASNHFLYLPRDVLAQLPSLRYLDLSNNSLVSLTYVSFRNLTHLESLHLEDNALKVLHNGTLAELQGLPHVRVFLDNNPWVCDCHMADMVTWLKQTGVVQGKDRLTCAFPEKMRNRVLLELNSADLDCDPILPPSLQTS


Columns and labels:
[1] = molecular target: T1, human 5T4 expressed on cells; experiment: flow cytometry, CHOK1-hu5T4 cells
human 5T4-His protein [2] = molecular target: T2, human 5T4-His protein; experiment: ELISA, coated human 5T4-His
human 5T4-His protein [3] = molecular target: T2, human 5T4-His protein; experiment: competitive ELISA, coated human 5T4, vs naptumomab-biotin
human 5T4-His protein [4] = molecular target: T2, human 5T4-His protein; experiment: as above; remark: listed apart in the source
human 5T4-His protein [5] = molecular target: T2, human 5T4-His protein; experiment: as above; remark: listed apart in the source
human 5T4-His protein [6] = molecular target: T2, human 5T4-His protein; experiment: ELISA, coated human 5T4-His; remark: listed apart in the source
[7] = molecular target: T1, human 5T4 expressed on cells; experiment: flow cytometry, CHOK1-hu5T4 cells; remark: listed apart in the source
[8] = molecular target: T1, human 5T4 expressed on cells; experiment: flow cytometry, HEK293-hu5T4 cells
human 5T4-His protein [9] = molecular target: T2, human 5T4-His protein; experiment: competitive ELISA, coated human 5T4, vs naptumomab-biotin; remark: listed apart in the source
human 5T4-His protein [10] = molecular target: T2, human 5T4-His protein; experiment: as above; remark: listed apart in the source
human 5T4-His protein [11] = molecular target: T2, human 5T4-His protein; experiment: ELISA, coated antigen
cynomolgus 5T4 protein = molecular target: T3, cynomolgus 5T4 protein; experiment: ELISA, coated antigen
human 5T4-His protein [12] = molecular target: T2, human 5T4-His protein; experiment: SPR Biacore, Protein A capture
Procedure: (§1) The binding of the chimeric mAbs from these clones against recombinant 5T4 protein (human 5T4-his tag) was tested with Biacore using a capture method. The mAbs were captured using Protein A chip. A serial dilution of human 5T4-his tag protein was injected over captured antibody for 2-3 mins at a flow rate of 30 μl/min. The antigen was allowed to dissociate for 360-1000 s. All the experiments were carried out on a Biacore T200. Data analysis was carried out using Biacore T200 evaluation software.

[13] = molecular target: T1, human 5T4 expressed on cells; experiment: flow cytometry, HEK293-hu5T4 cells; remark: listed apart in the source
Procedure: (§2) To evaluate the binding property of affinity maturated antibodies to surface 5T4, tested antibodies were analyzed for their binding to CHOK1-hu5T4, HEK293-hu5T4 or MCF-7 cells by FACS. […] After wash by FACS buffer, PE conjugated-anti-human IgG antibody was added to each well and incubated at 4° C. for 30 minutes. MFI of PE was evaluated by MACSQuant Analyzer 16.

[14] = molecular target: T1, human 5T4 expressed on cells; experiment: flow cytometry, HEK293-hu5T4 cells; remark: listed apart in the source
Procedure: as §2

human 5T4-His protein [15] = molecular target: T2, human 5T4-His protein; experiment: ELISA, coated 5T4-His
human 5T4-His protein [16] = molecular target: T2, human 5T4-His protein; experiment: SPR Biacore, Protein A capture; remark: listed apart in the source
Procedure: The binding of the 14G12 humanized antibodies to recombinant 5T4 protein (human 5T4-his tag) was tested with Biacore using a capture method. The mAbs were captured using Protein A chip. Serial dilution of human 5T4-his tag protein was injected over captured antibody for 120 s-180 s at a flow rate of 30 μl/min. The antigen was allowed to dissociate for 360 s-1000 s. All the experiments were carried out on a Biacore T200. Data analysis was carried out using the Biacore T200 evaluation software.

[17] = molecular target: T1, human 5T4 expressed on cells; experiment: flow cytometry, MCF-7 cells
Procedure: as §2

human 5T4-His protein [18] = molecular target: T2, human 5T4-His protein; experiment: ELISA, coated human 5T4-His; remark: listed apart in the source
Procedure: (§3) Briefly, microtiter plates were coated with human 5T4-His protein at 2 μg/ml in PBS, 30 μl/well at 4° C. overnight, then blocked with 5% PBS/Milk. Serial dilutions of antibodies were added to each well and incubated for 1 hour at room temperature. The plates were washed with PBS/Tween and then incubated with Goat Anti-Human IgG-HRP for 50 mins at room temperature. After washing, the plates were developed with TMB substrate and analyzed by spectrophotometer at OD 450 nm.

[19] = molecular target: T1, human 5T4 expressed on cells; experiment: flow cytometry, CHOK1-hu5T4 cells; remark: listed apart in the source
Procedure: as §2

human 5T4-His protein [20] = molecular target: T2, human 5T4-His protein; experiment: ELISA, coated human 5T4-His; remark: listed apart in the source
Procedure: as §3

[21] = molecular target: T1, human 5T4 expressed on cells; experiment: flow cytometry, CHOK1-hu5T4 cells; remark: listed apart in the source
Procedure: as §2

human 5T4-His protein [22] = molecular target: T2, human 5T4-His protein; experiment: SPR Biacore, Protein A capture; remark: listed apart in the source
Procedure: as §1, with “binding affinity” for “binding”, “tested antibodies” for “the chimeric mAbs from these clones”, “antibodies” for “mAbs”, “3” for “2-3”, “300” for “360-1000”

human 5T4-His protein [23] = molecular target: T2, human 5T4-His protein; experiment: SPR Biacore, Protein A capture; remark: listed apart in the source

Row | Molecule | EC50 (read off the curve) [13] | EC50 (read off the curve) [14] | EC50 (read off the curve) [17] | EC50 (read off the curve) (human 5T4-His protein [18]) | EC50 (read off the curve) [19] | EC50 (read off the curve) (human 5T4-His protein [20]) | EC50 (read off the curve) [21] | Kd (human 5T4-His protein [22]) | koff (human 5T4-His protein [22]) | kon (human 5T4-His protein [22]) | fold increase of binding affinity against the parental Hu14G12-28 (human 5T4-His protein [23]) | also measured
1 | naptumomab (antibody portion of naptumomab (NeoTX) that targets 5T4) |  |  |  |  |  |  |  |  |  |  |  | EC50 (read off the curve) [1]: 2 nM; EC50 (read off the curve) (human 5T4-His protein [2]): 0.2 nM; IC50 (read off the curve) (human 5T4-His protein [3]): 3 nM; IC50 (read off the curve) (human 5T4-His protein [4]): 4 nM; IC50 (read off the curve) (human 5T4-His protein [5]): 6 nM; EC50 (read off the curve) (human 5T4-His protein [6]): 0.1 nM; EC50 (read off the curve) [7]: 1 nM; EC50 (read off the curve) [8]: 2 nM; IC50 (read off the curve) (human 5T4-His protein [9]): 5 nM
2 | 113H5 chimeric antibody (antibody, V domains shown, chimeric mAb) VH: DVQLQESGPGLVKPSQSLSLTCSVTGYSITSGYYWNWIRQFPGNKLEWMGYINSDGSNNYNPSLKNRISITRDTSKNQFFLKLNSVTTEDTATYYCAREEYDYWFAYWGQGTLVTVSA VL: DIVMTQSQKFMSTSVGDRVSVTCKASQNVGTNVAWYQQKPGQSPKALIYSASNRYSGVPDRFTGSGFGTDFTLTISNVQSEDLTEYFCQQYNSYPYTFGGGTNLEIK |  |  |  |  |  |  |  |  |  |  |  | IC50 (read off the curve) (human 5T4-His protein [10]): ~6 nM; EC50 (human 5T4-His protein [11]): 0.52 nM; EC50 (cynomolgus 5T4 protein): 0.82 nM; Kd (human 5T4-His protein [12]): 0.552 nM; koff (human 5T4-His protein [12]): 0.000192 s⁻¹; kon (human 5T4-His protein [12]): 348000 M⁻¹ s⁻¹
3 | Hu14G12-28 (antibody, V domains shown, humanized; also called parental Hu14G12-28 antibody) VH: QVQLVQSGAEVKKPGASVKVSCKASGYAFSSSWMNWVRQAPGQGLEWMGRIYREDGHTNYNGKFKGRVTMTADKSITTAYMELSRLRSDDTAVYYCANGGAMDYWGQGTLVTVSS VL: DIQMTQSPSSLSASVGDRVTITCRASQDISNYLNWYQQKPGKAPKLLIYYTSRLHSGVPSRFSGSGSGTDYTFTISSLQPEDIATYFCQQDNTLPWTFGGGTKVEIK | ~2 nM | ~2 nM | ~0.2 nM | ~0.2 nM | ~2 nM | ~0.1 nM | ~1 nM | 4.09 nM | 0.000738 s⁻¹ | 180000 M⁻¹ s⁻¹ |  | EC50 (human 5T4-His protein [15]): 0.01 mg/L; Kd (human 5T4-His protein [16]): 2.42 nM; koff (human 5T4-His protein [16]): 0.000714 s⁻¹; kon (human 5T4-His protein [16]): 295000 M⁻¹ s⁻¹
4 | Hu14G12-28-88# (antibody, V domains shown) VH: QVQLVQSGAEVKKPGASVKVSCKASGYAFSSSWMNWVRQAPGQGLEWMGRIYREDGHTNYNGKFKGRVTMTADKSITTAYMELSRLRSDDTAVYYCANGGAMDYWGQGTLVTVSS VL: DIQMTQSPSSLSASVGDRVTITCRASQDISNYLNWYQQKPGKAPKLLIYYTSRLHSGVPSRFSGSGSGTDYTFTISSLQPEDIATYFCGNDNTLPWTFGGGTKVEIK |  | ~2 nM | ~0.3 nM | ~0.2 nM | ~2 nM |  |  | 0.433 nM | 8.28e-05 s⁻¹ | 191000 M⁻¹ s⁻¹ | 9.45 fold | 
5 | Hu14G12-28-108# (antibody, V domains shown) VH: QVQLVQSGAEVKKPGASVKVSCKASGYAFSSSWMNWVRQAPGQGLEWMGRIYREDGHTNYNGKFKGRVTMTADKSITTAYMELSRLRSDDTAVYYCANGGAMDYWGQGTLVTVSS VL: DIQMTQSPSSLSASVGDRVTITCRASQDISNYLNWYQQKPGKAPKLLIYYTSRLHSGVPSRFSGSGSGTDYTFTISSLQPEDIATYFCANDNTLPWTFGGGTKVEIK | ~2 nM |  | ~0.3 nM |  |  | ~0.1 nM | ~1 nM | 0.552 nM | 0.000101 s⁻¹ | 183000 M⁻¹ s⁻¹ | 7.41 fold | 
